Legend:
[1] = test system: SNAP-FCE-T7 RNAP fusion (Faustovirus / phage T7); settings: 5'-triphosphate; soluble fusion
[2] = test system: Faustovirus capping enzyme (FCE) (Faustovirus); settings: 5'-triphosphate; soluble, 37 C, 30 min, SAM, GTP

ppp25mer FAM RNA
activity [1]: > 95 % capping
activity [2]: > 95 % capping
